According to the NTF2 design screens of Basanta et al. (2020):

Test: protease stability score; higher = more stable; yeast display proteolysis, trypsin and chymotrypsin;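 further: log10 excess protease needed over predicted unfolded state with 0 meaning unfolded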

In order of falling protease stability score:
1. DEDRMRKLLEQFLTALLQGDPEKMMELADEDVRMTYGDKEYHGREQVRDWAKDYRDKVDHASVHSYEVHGDKAQAIVVANVNGRTLSYTVVVRFQDGRAKHIKFESS  2.23
2. DEDRLRELVKKFVDAMRTNDEDRIREMMDKDVRVEVGDTVIKGHNEAKKWAKRLRERADHIHFDSVHVQGDRAEVDFQVRHNGKTDRNVLVLRMNNGRVQELRVHTK  1.81
3. DEDRQQTLADELVKALEKGDFEKIEKLADPNVRVEIGDRHVRGREQASKELKKYTDRVDEVRIDSLEVQGEKVSADFRFNVDGHTIRLTAEITFHNGRIKMMRFHFTNEDQERRYKS  1.02
4. DEDRMKRLVRIFEHGDEDKLRKQADENATLKVGNHEIHGREEVQTFAQILKERVDHFHVRRVDLKGNSITALVRATVNGQSVEFKVIIVVQNGRIKKITIHATSEEQMKQLDKLFS  0.959
5. DEDSDRSVAQEFFEAVQRGNKSDVHRLADKDAKAEVGEKDIDGREELTKWVRELKRRVDHLDVKSITNKPGRVHFDAEYHFNGTTEKMVIVVQVHNGKVKEVTVQRG  0.908
6. DEDRRAKELAERLDEALRTGDEERLQRLFDKDVRFDIGDKTIHGRTEAARQMVTHANRADHVHMKVTDLKRHGSRIVVVVHFRQNINGKKDSRDVKIEVKLEGDRIKVVRATYR  0.888
7. DEDRMTEAEKILKENNPDQMRDLFDENAKAEIGDNDLHGREHIVEEQRRYNEKVDHVQYHSVTFSNGKMRFDVRASVNGKKFRFQAEFHLDNGKIKHIKIDFRDEEDEKEFKRVVG  0.66
8. DEDREKRFAKHVADVLRTGDSDRLQELADENVRMRIGDKTYKGRENFTKALEELRNRVDHIDIKSVKVHNGRISIDFVMRHNGREQTAVLIMHIHNGRIESQEVHSK  0.618
9. DEDRRAREWVETMQDIVENNNERDMKKLFDPNARVSVGDREYHGEDEIAHVLQREMENADNIHIEVKSIIVHGDKVTVDLTVSVQVNGKTETDRVRMVLKDKDGRIQVVSVQQT  0.597
10. DEDRMRELMKVMMDAVRNGNQEQAYKVMDEGGEFHVGDKTVRGPEQVKEYVKEVQDWGNHVEYKETHYEGDTATVKTQAHLGDVTVDFEVHYVVKGNKLKRFEVRFNKEQIKEFKKS  0.593
11. DEDRLREQATNFIEAMQTGDTKRVDEQIDKDAQLVVGEKKYEGREQISTFVKEMHHQFDHVRLQRVTVSGNKVLLDVVMDFNGKDLRINIVIHMNNGKISQVQVDYTNPEDAKTARG  0.587
12. DEDRKAREFIHDEQRAFEQNNPDDIVRLADPNVRVNIGEHDVRGHEDFKKWVDELLEKYDQINFKVTSVSVRGDHIEATVMIQNQKNGEDDTHVVLITLKDHNGRLLIEMIQER  0.315
13. DEDSEAHKLLRELEKVLSTGDEDKMRRLADPNASIRIGDTQIRGRTQIQDHVKRHKEHVDKVSIDVKEVTAQGNKANMKYVIRVQINGRTHQEQVRVDVDLQGDKFKIKQWTEG  0.055
14. DEDRYRRKIEEVFKQVENGDEKKMKKDLKENVKYKYADKEKEGPEVAEHIVKVVKKIGAEVTRKEQEVKGDTLRAKFQYRKGDQTVRTEAEATYEGDQAKEVRVKMTDEVKKIVHQG  0.05
15. DEDRYKKLMDKAFKLIMSGDEETMIKMLKPDVQYEYIDTKYEGEQVAKVIVRIVQKVGAEVRIKRKEHKGDKARADFDYHNGDQTVRTTAEVRYEGDKLKEARVKMTDEVKKVVQRG  0.028
16. DEDRYERLVKKAFEMIVKGNEEEVRKLLKPDVDYEYADHKFRGEEAAQFIVRLVQKVGAQAEVRRHKVEGNTATADFVYHDGDQTVQTRAEVTYEGDKLKQARVENTEEVKKLDHKG  0.003
17. DEDRVRKVAKEVFEMLKKGDVDKLKELGKEDVVFQFGDERVKGVEEYRRIMKEMQDQGVQHEVKKAQVKDDTAKMVTVVTYGNKDVQLTAEATYEGGRLKEARVENTEEYKKIAKKS  -0.084
18. DEDRVRRHLEKAFKVIQNGNEEEAKKIGAPDVEYHYADKELEGEEAVIVAVRIVKKIGAEVKTQEEEVKGNEMRATFQYKKGDTTVQTKATVVYEGDKLKKARVELSDEVKKIIHQG  -0.111
19. DEDRTRRMLEKVFEYVVKGDVDHVRKHGKPNVRYEYADKKKEGEEVYKLIVKIVKKVGAEAKRREQEVKGDTMRANFQYNKGDKTVQTTAEAQYEGDKADKLRAELTDEVKKVVHQG  -0.152
20. DEDREQEMLEKMVQIWEEGDEEKMVRLADPNVTVRVGDKNVHGRKHLREELQKERKQVDHFYVRHITIHNGTVNLDVEYNHNGQREQATVIAKVHDGRIKELSVHSS  -0.204
